One may read the EC50 as the concentration that produces a half-maximal response. Low readings indicate an effect from little substance, high ones a need for much substance. Usually Kd stands for the concentration at which binding is half-saturated. High values mean lower affinity, low ones higher affinity. In general, koff refers to the first-order rate constant of dissociation. The kon is a measure of how fast the partners come together. Low readings indicate slow association, high ones fast association.

Residue numbers refer to the chain shown, from its start.

This is an account of results in patent EP4703390A1 (Chia Tai Tianqing Pharmaceutical Group Co., Ltd., dated 2026).

B1: anti-EGFR/anti-c-Met multispecific antibody V42 (bispecific antibody, human IgG1, kappa)
chain: QVQLLESGGGSVQAGGSLRLSCAASGHTYSSGCMGWFRQAPGKGREGVATIYTRNDFTYYSDTVKGRFTISRDNSKNTVYLQMNSLRAEDTAVYYCAAGSPFRYAGAWNVCGLKEEDYNYWGQGTLVTVSSGGGGSGGGGSQVQLVESGGGSVQPGGSLRLSCAASGYSYSANCVGWFRQAPGKGREGVSAINTGGETATYADFVKGRFTISRDNAKNTVYLQMNSLRAEDTAVYYCAAVGTRKYWDECSLSQHAYKNWGQGTLVTVSSGEPKSSDKTHTCPPCPAPELLGGPSVFLFPPKPKDTLMISRTPEVTCVVVDVSHEDPEVKFNWYVDGVEVHNAKTKPREEQYNSTYRVVSVLTVLHQDWLNGKEYKCKVSNKALPAPIEKTISKAKGQPREPQVCTLPPSREEMTKNQVSLSCAVKGFYPSDIAVEWESNGQPENNYKTTPPVLDSDGSFFLVSKLTVDKSRWQQGNVFSCSVMHEALHNRFTQKSLSLSPGK
heavy: not shown
light: not shown
notes: Three chains, trivalent: 1B-1B6-V3 VHH - 1B-1C7-V1 VHH - Fc plus anti-EGFR Fab arm; knob-into-hole Fc; expressed in FUT8-/- CHO-S cells
B2: amivantamab (bispecific antibody)
chain 1: not shown
chain 2: not shown
chain 3: not shown
chain 4: DIQMTQSPSSVSASVGDRVTITCRASQGISNWLAWFQHKPGKAPKLLIYAASSLLSGVPSRFSGSGSGTDFTLTISSLQPEDFATYYCQQANSFPITFGQGTRLEIKRTVAAPSVFIFPPSDEQLKSGTASVVCLLNNFYPREAKVQWKVDNALQSGNSQESVTEQDSKDSTYSLSSTLTLSKADYEKHKVYACEVTHQGLSSPVTKSFNRGEC
B3: anti-EGFR/anti-c-Met multispecific antibody V73 (bispecific antibody, human IgG1, kappa)
chain: EVQLVESGGGSVQAGGSLRLSCAVSGFTVSSNFMAWFRQAPGKGREWVSTITTGAGNTAYADSVKGRFTISEDNSKNTLYLQMNSLRAEDTAVYYCAAGRGGFWRPAEYDFWGQGTTVTVSSGGGGSQVQLVESGGGSVQPGGSLRLSCAASGYSYSANCVGWFRQAPGKGREGVSAINTGGETATYADFVKGRFTISRDNAKNTVYLQMNSLRAEDTAVYYCAAVGTRKYWDECSLSQHAYKNWGQGTLVTVSSGEPKSSDKTHTCPPCPAPELLGGPSVFLFPPKPKDTLMISRTPEVTCVVVDVSHEDPEVKFNWYVDGVEVHNAKTKPREEQYNSTYRVVSVLTVLHQDWLNGKEYKCKVSNKALPAPIEKTISKAKGQPREPQVCTLPPSREEMTKNQVSLSCAVKGFYPSDIAVEWESNGQPENNYKTTPPVLDSDGSFFLVSKLTVDKSRWQQGNVFSCSVMHEALHNRYTQKSLSLSPGK
heavy: not shown
light: not shown
notes: knob-into-hole Fc; expressed in FUT8-/- CHO-S cells
B4: anti-EGFR/anti-c-Met multispecific antibody V12 (bispecific antibody, human IgG1, kappa)
chain: QVQLVESGGDSVQAGGSLRLSCAASAHAYSSGCMGWFRQAPGKGREGVATIYTRNDFTYYSDSVKGRFTISRDDAKNTVYLQVNSLKAEDTAMYYCAAGSPFRYAGAWNVCGLKEEDYNYWGQGTLVTVSSGGGGSGGGGSQVQLVESGGGLVQPGGSLRLSCAASGYSYSANCVGWFYQAPGKEREGVAAINTGGETATYADFVKGRFTISQDYAKNTVYLQMNSLKSEDTGMYYCAAVGTRKYWDECSLSQHAYKNWGQGTLVTVSSGEPKSSDKTHTCPPCPAPELLGGPSVFLFPPKPKDTLMISRTPEVTCVVVDVSHEDPEVKFNWYVDGVEVHNAKTKPREEQYNSTYRVVSVLTVLHQDWLNGKEYKCKVSNKALPAPIEKTISKAKGQPREPQVCTLPPSREEMTKNQVSLSCAVKGFYPSDIAVEWESNGQPENNYKTTPPVLDSDGSFFLVSKLTVDKSRWQQGNVFSCSVMHEALHNRFTQKSLSLSPGK
heavy: not shown
light: not shown
notes: Three chains, trivalent: 1B-1B6 VHH - 1B-1C7 VHH - Fc plus anti-EGFR Fab arm; knob-into-hole Fc; expressed in FUT8-/- CHO-S cells
B5: anti-EGFR/anti-c-Met multispecific antibody V35 (bispecific antibody, human IgG1, kappa)
chain: B1 chain with T63S
heavy: not shown
light: not shown
notes: Three chains, trivalent: 1B-1B6-V2 VHH - 1B-1C7-V1 VHH - Fc plus anti-EGFR Fab arm; knob-into-hole Fc; expressed in FUT8-/- CHO-S cells
B6: anti-EGFR/anti-c-Met multispecific antibody V41 (bispecific antibody, human IgG1, kappa)
chain: B1 chain with H27F, Y29F, T63S
heavy: not shown
light: not shown
notes: Three chains, trivalent: 1B-1B6-V1 VHH - 1B-1C7-V1 VHH - Fc plus anti-EGFR Fab arm; knob-into-hole Fc; expressed in FUT8-/- CHO-S cells
B7: anti-EGFR/anti-c-Met multispecific antibody V74 (bispecific antibody, human IgG1, kappa)
chain: B3 chain with L79A
heavy: not shown
light: not shown
notes: as for B3
B8: anti-EGFR/anti-c-Met multispecific antibody V67 (bispecific antibody, human IgG1, kappa)
chain: EVQLVESGGGSVQAQGSLRLSCTVSGSTYSSNFMAWFRQAPGKEREWVATITTGAGNTAYADSVKGRFTISEDNAKRTAYLQMNSLKPEDTAVYYCAAGRGGFWRPAEYDFWGQGTQVTVSSGGGGSQVQLVESGGGSVQPGGSLRLSCAASGYSYSANCVGWFRQAPGKGREGVSAINTGGETATYADFVKGRFTISRDNAKNTVYLQMNSLRAEDTAVYYCAAVGTRKYWDECSLSQHAYKNWGQGTLVTVSSGEPKSSDKTHTCPPCPAPELLGGPSVFLFPPKPKDTLMISRTPEVTCVVVDVSHEDPEVKFNWYVDGVEVHNAKTKPREEQYNSTYRVVSVLTVLHQDWLNGKEYKCKVSNKALPAPIEKTISKAKGQPREPQVCTLPPSREEMTKNQVSLSCAVKGFYPSDIAVEWESNGQPENNYKTTPPVLDSDGSFFLVSKLTVDKSRWQQGNVFSCSVMHEALHNRYTQKSLSLSPGK
heavy: not shown
light: not shown
notes: as for B3

In the first test the target is T1, EGFR and c-Met on the surface of tumor cells (human, UniProt P00533 25-1210; P08581 25-1390). The test can be described thus: cell-based or functional assay.
For the molecule B1, the “IC50 for inhibiting proliferation of KP4 cells (CCK8)” value came out at 13.1 nM and the “IC50 for inhibiting proliferation of NCI-H292 cells (CCK8, with 1 ng/mL HGF)” value amounted to 13.7 nM.
Consider B2, for which the “IC50 for inhibiting proliferation of KP4 cells (CCK8)” value stood at 29 nM and the “IC50 for inhibiting proliferation of NCI-H292 cells (CCK8, with 1 ng/mL HGF)” value was 45.8 nM.
For B3, in that order: 7.99 nM and 5.36 nM.

In another test the target is T1, EGFR and c-Met on the surface of tumor …. The test can be described thus: flow cytometry, NCI-H1993 cells (medium EGFR, high c-Met). (In general: A flow cytometer gives signals particle by particle.)
Turning to B1, the EC50 was 1.03 nM.
Same read-out and setting: with B2 the figure was 0.596 nM.
B3 gave an EC50 of 1.02 nM.

Another test has the same target. As to the kind of experiment: flow cytometry, A431 cells (high EGFR, low c-Met).
In turn, B1 had an EC50 of 1.85 nM.
Turning to B2, a half-maximal effect (EC50) was put at 1.62 nM.
Same read-out and setting: then B3, with 1.91 nM.

The target is the same in a further test. As to the kind of experiment: flow cytometry, NCI-H1975 cells (medium EGFR, low to medium c-Met).
B1 registered an EC50 of 0.755 nM.
In the case of B2, the midpoint of the response, the EC50, lay at 0.378 nM.
With B3, the EC50 stood at 0.794 nM.

In another test the target is T2, Human c-Met-His (SinoBiological, Cat. No. 10692-H08H) (human, UniProt P08581 25-932).
T2 construct: Bought protein; also called c-Met-His protein; human c-Met protein; not shown: His tag
T2 sequence (P08581 25-932 limits assumed): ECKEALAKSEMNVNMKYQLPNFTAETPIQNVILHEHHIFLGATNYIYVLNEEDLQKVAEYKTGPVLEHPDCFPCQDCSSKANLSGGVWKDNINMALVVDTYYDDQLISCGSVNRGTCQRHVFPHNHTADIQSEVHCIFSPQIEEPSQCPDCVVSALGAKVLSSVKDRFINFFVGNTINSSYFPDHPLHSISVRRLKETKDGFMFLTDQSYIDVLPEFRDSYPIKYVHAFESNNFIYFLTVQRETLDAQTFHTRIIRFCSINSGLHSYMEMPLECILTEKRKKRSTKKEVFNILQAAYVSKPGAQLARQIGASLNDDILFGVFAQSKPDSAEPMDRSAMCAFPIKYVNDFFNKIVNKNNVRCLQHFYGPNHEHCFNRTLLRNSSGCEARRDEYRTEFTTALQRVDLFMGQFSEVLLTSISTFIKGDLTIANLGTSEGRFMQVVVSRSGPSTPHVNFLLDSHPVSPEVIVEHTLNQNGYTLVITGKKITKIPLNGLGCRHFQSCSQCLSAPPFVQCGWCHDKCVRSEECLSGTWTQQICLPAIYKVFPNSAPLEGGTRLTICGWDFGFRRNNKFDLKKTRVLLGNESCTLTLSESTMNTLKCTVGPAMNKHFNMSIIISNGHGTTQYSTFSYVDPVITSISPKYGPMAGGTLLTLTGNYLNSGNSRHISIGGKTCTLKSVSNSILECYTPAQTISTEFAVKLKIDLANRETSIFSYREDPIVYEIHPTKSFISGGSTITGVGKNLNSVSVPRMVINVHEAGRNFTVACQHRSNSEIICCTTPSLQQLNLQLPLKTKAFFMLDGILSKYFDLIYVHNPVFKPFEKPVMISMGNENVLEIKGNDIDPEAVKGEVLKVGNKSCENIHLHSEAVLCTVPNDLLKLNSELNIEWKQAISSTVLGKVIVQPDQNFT
As to the kind of experiment: SPR (Biacore), antibody captured on anti-hIgG Fc chip, human c-Met-His as analyte.
Molecule B4 gave a Kd of 0.325 nM, an off-rate constant (koff) of 4.62e-05 s⁻¹ and a kon of 142000 M⁻¹ s⁻¹.
Taken in the same sequence, the figures for B5 were 0.318 nM, 3.34e-05 s⁻¹ and 105000 M⁻¹ s⁻¹.
Molecule B6 showed a Kd of 0.368 nM, a koff of 3.57e-05 s⁻¹ and a kon of 97000 M⁻¹ s⁻¹.
B1 displayed a Kd of 0.438 nM, a koff of 4.39e-05 s⁻¹ and a kon of 100000 M⁻¹ s⁻¹.
For B7, in that order: 0.548 nM, 0.000128 s⁻¹ and 234000 M⁻¹ s⁻¹.
Molecule B8 showed a Kd of 0.276 nM, a dissociation rate constant (koff) of 7.01e-05 s⁻¹ and a kon of 254000 M⁻¹ s⁻¹.
For B3, the Kd turned out to be 0.458 nM, the koff is 9.03e-05 s⁻¹ and the kon was found to be 197000 M⁻¹ s⁻¹.

In the next test the target is T1, EGFR and c-Met on the surface of tumor …. As to the kind of experiment: cell-based or functional assay. This is another data set of the same source.
For B1, the “endocytic activity EC50, A431 cells (flow cytometry, internalization reagent)” value worked out at 10.5 nM; the “endocytic activity EC50, NCI-H441 cells (flow cytometry, internalization reagent)” value is 11.8 nM; the “endocytic activity EC50, NCI-H1975 cells (flow cytometry, internalization reagent)” value was 9.66 nM.
Taken in the same sequence, the figures for B2 were 15.1 nM, 35.6 nM and 15.2 nM.
Regarding B3, the “endocytic activity EC50, A431 cells (flow cytometry, internalization reagent)” value came to 8.33 nM; the “endocytic activity EC50, NCI-H441 cells (flow cytometry, internalization reagent)” value is 16.7 nM; the “endocytic activity EC50, NCI-H1975 cells (flow cytometry, internalization reagent)” value was determined as 12.4 nM.

The next test shares this target. As to the kind of experiment: cell-based or functional assay. This is another data set of the same source.
As to B1, the “ADCC lysis EC50, KP4 cells, human PBMC effectors” value (“ADCC lysis EC50, KP4 cells” below) was 0.0117 nM and the “ADCC lysis EC50, NCI-H292 cells, human PBMC effectors” value (from here on “ADCC lysis EC50, NCI-H292 cells”) was 0.0135 nM.
On to B2, for which the “ADCC lysis EC50, KP4 cells” value amounted to 0.0171 nM and the “ADCC lysis EC50, NCI-H292 cells” value amounted to 0.021 nM.
Take B3: the “ADCC lysis EC50, KP4 cells” value was determined as 0.027 nM and the “ADCC lysis EC50, NCI-H292 cells” value is 0.0181 nM.
